Laboratory results: patent US20120065146A1
Non-standard residues stand in square brackets, D forms with d. No end group written: not given here. pT = C[C@@H](OP(=O)(O)O)[C@H](N)C(=O)O

Target: HA-EGFP-Plk1, P53350
Assay: ELISA competition
Details: remark: other sources report otherwise

HA-EGFP-Plk1, P53350, sequence (P53350 whole entry): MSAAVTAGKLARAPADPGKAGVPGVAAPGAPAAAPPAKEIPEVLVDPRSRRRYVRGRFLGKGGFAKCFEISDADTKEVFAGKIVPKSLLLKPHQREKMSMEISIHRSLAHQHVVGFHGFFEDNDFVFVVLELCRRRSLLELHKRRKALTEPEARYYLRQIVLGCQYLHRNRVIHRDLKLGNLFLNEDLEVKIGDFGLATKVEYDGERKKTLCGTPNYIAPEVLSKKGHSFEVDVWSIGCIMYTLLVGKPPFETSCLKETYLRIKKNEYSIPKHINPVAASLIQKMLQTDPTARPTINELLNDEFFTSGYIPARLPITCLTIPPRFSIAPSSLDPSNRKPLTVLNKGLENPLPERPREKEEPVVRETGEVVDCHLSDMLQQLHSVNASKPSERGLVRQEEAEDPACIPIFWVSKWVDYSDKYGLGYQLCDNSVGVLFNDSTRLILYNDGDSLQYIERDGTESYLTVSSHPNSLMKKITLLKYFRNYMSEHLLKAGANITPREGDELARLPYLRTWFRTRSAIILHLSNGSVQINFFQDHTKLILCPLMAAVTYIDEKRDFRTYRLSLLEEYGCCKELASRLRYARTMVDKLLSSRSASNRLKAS

fold loss of binding affinity [fold] | fold decrease in binding against 3l [fold] | Binder
> 100 | – | PLHA[pT] (also: Pro 1 modified as in ether analogue 8 (structure not given here)) [peptide 11 (Example 12), S/A mutant of 8]
– | 100 | PLHA[pT] (also: further groups not given here) [peptide 5 (Example 15), S/A mutant of 3l]
> 100 | – | PLHA[pT] (also: Pro 1 modified as in ether analogue 7 (structure not given here)) [peptide 9 (Example 12), S/A mutant of 7]
